Measurements from the supplement of paper PMC11780869.

Test system: Bacillus subtilis
Test: cleaved RNA product abundance (RNA/gDNA barcode ratio) relative to median wild-type variant (ratio to wild type); higher = more accumulation of the downstream cleavage product
Settings: cleavage site: cggR-gapA (positions -7 to +36 mutated)
Method in brief: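 Cleaved product abundance was measured with barcoded reporter mRNAs (truncated aprE or tetM) carrying mutagenized RNase Y cleavage-site windows in the B. subtilis chromosome. Cultures in LB at 37°C grew from OD600 0.0003 to 0.3. Gel-selected cleaved RNA was reverse transcribed and barcode-sequenced with genomic DNA barcodes, and the RNA:gDNA barcode ratio per construct was scaled to the median construct bearing the unmutated site.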

[1] = experiment (reporter, strain, medium): exp 2b: truncated aprE reporter, strain BJT200
[2] = experiment (reporter, strain, medium): exp 4a: truncated aprE reporter, strain BJT201 with 2% xylose (RNase J1 expressed)
[3] = experiment (reporter, strain, medium): exp 6: tetM reporter, strain 168

Sequence | cleaved RNA product abundance [1] | cleaved RNA product abundance [2] | cleaved RNA product abundance [3]
ACAGACGAAGGAGCCGCAAAGAATTTATTAAGGGATGAATAATCGCTCAATATAAATATCTCTCACTTATTTAAA | 0.105 | 0.0604 | –
ACAGACGAAGGAGCCGCAAAGAATTTATTAAGGGATGAATAATCTCTCAATATAAATATCTCTCACTTATTTAAA | – | 0.844 | –
ACAGACGAAGGAGCCGCAAAGAATTTATTAAGGGATGAATAATGCATCAATATAAATATCTCTCACTTATTTAAA | – | 0.2 | –
ACAGACGAAGGAGCCGCAAAGAATTTATTAAGGGATGAATAATGCCTCAATATAAATATCTCTCACTTATTTAAA | – | 0.177 | –
ACAGACGAAGGAGCCGCAAAGAATTTATTAAGGGATGAATAATTCCTCAATATAAATATCTCTCACTTATTTAAA | – | 0.394 | –
ACAGACGAAGGAGCCGCAAAGAATTTATTAAGGGATGAATACTCCCTCAATATAAATATCTCTCACTTATTTAAA | 0.404 | 0.583 | –
ACAGACGAAGGAGCCGCAAAGAATTTATTAAGGGATGAATAGTCCCTCAATATAAATATCTCTCACTTATTTAAA | – | 0.713 | –
ACAGACGAAGGAGCCGCAAAGAATTTATTAAGGGATGAATCATCCCTCAATATAAATATCTCTCACTTATTTAAA | – | 0.545 | –
ACAGACGAAGGAGCCGCAAAGAATTTATTAAGGGATGAATTATCCCTCAATATAAATATCTCTCACTTATTTAAA | 0.531 | 0.268 | –
ACAGACGAAGGAGCCGCAAAGAATTTATTAAGGGATGACTAATCCCTCAATATAAATATCTCTCACTTATTTAAA | 0.3 | – | –
ACAGACGAAGGAGCCGCAAAGAATTTATTAAGGGATGCATAATCCCTCAATATAAATATCTCTCACTTATTTAAA | 0.535 | 0.597 | –
ACAGACGAAGGAGCCGCAAAGAATTTATTAAGGGATGTATAATCCCTCAATATAAATATCTCTCACTTATTTAAA | – | 0.683 | –
ACAGACGAAGGAGCCGCAAAGAATTTATTAAGGGATTAATAATCACTCAATATAAATATCTCTCACTTATTTAAA | – | 0.153 | –
ACAGACGAAGGAGCCGCAAAGAATTTATTAAGGGATTAATAATCCCTCAATATAAATATCTCTCACTTATTTAAA | 0.771 | 0.772 | –
ACAGACGAAGGAGCCGCAAAGAATTTATTAAGGGCTGAATAATCCCTCAATATAAATATCTCTCACTTATTTAAA | – | 0.402 | –
ACAGACGAAGGAGCCGCAAAGAATTTATTAAGGGGTGAATAATCCCTCAATATAAATATCTCTCACTTATTTAAA | – | 0.526 | –
ACAGACGAAGGAGCCGCAAAGAATTTATTAAGGGTTGAATAATCCCTCAATATAAATATCTCTCACTTATTTAAA | – | 0.388 | –
ACAGACGAAGGAGCCGCAAAGAATTTATTAAGGTATGAATAATCCCTCAATATAAATATCTCTCACTTATTTAAA | 0.102 | 0.178 | –
ACAGACGAAGGAGCCGCAAAGAATTTATTAAGTGATGAATAATCCCTCAATATAAATATCTCTCACTTATTTAAA | 0.127 | 0.118 | 0.117
ACAGACGAAGGAGCCGCAAAGAATTTATTAATGGATGAATAATCCCTCAATATAAATATCTCTCACTTATTTAAA | 0.105 | 0.111 | –
ACAGACGAAGGAGCCGCAAAGAATTTATTACGGGATGAATAATCCCTCAATATAAATATCTCTCACTTATTTAAA | 0.303 | 0.37 | –
ACAGACGAAGGAGCCGCAAAGAATTTATTATGGGATGAATAATCCCTCAATATAAATATCTCTCACTTATTTAAA | 0.266 | 0.292 | –
ACAGACGAAGGAGCCGCAAAGAATTTATTCAGGGATGAATAATCCCTCAATATAAATATCTCTCACTTATTTAAA | 0.624 | 0.549 | –
ACAGACGAAGGAGCCGCAAAGAATTTATTTAGGAATGAATAATCCCTCAATATAAATATCTCTCACTTATTTAAA | – | 0.0547 | –
ACAGACGAAGGAGCCGCAAAGAATTTCTTAAGGGATGAATAATCCCTCAATATAAATATCTCTCACTTATTTAAA | – | 0.217 | –
ACAGACGAAGGAGCCGCAAAGAATTTTTTAAGGGATGAATAATCCCTCAATATAAATATCTCTCACTTATTTAAA | – | 0.216 | –
ACAGACGAAGGAGCCGCAAAGACATTATTAAGGGATGAATAATCCCTCAATATAAATATCTCTCACTTATTTAAA | – | 0.85 | –

Sequence | cleaved RNA product abundance [1] | cleaved RNA product abundance [2] | cleaved RNA product abundance [3]
ACAGACGAAGGAGCCGCAAAGACGCTATTAAGGGATGAATAATCCCTCAATATAAATATCTCTCACTTATTTAAA | 0.548 | – | –
ACAGACGAAGGAGCCGCAAAGACGTCATTAAGGGATGAATAATCCCTCAATATAAATATCTCTCACTTATTTAAA | – | 0.449 | –
ACAGACGAAGGAGCCGCAAAGACGTTATAAAGGGATGAATAATCCCTCAATATAAATATCTCTCACTTATTTAAA | – | 0.401 | –
ACAGACGAAGGAGCCGCAAAGACGTTATTAAAGGATGAATAATCCCTCAATATAAATATCTCTCACTTATTTAAA | – | 0.181 | –
ACAGACGAAGGAGCCGCAAAGACGTTATTAACGGATGAATAATCCCTCAATATAAATATCTCTCACTTATTTAAA | – | 0.165 | –
ACAGACGAAGGAGCCGCAAAGACGTTATTAAGAGATGAATAATCCCTCAATATAAATATCTCTCACTTATTTAAA | 0.101 | 0.116 | –
ACAGACGAAGGAGCCGCAAAGACGTTATTAAGCGATGAATAATCCCTCAATATAAATATCTCTCACTTATTTAAA | – | 0.155 | –
ACAGACGAAGGAGCCGCAAAGACGTTATTAAGGAATGAATAATCCCTCAATATAAATATCTCTCACTTATTTAAA | – | 0.14 | –
ACAGACGAAGGAGCCGCAAAGACGTTATTAAGGGATAAATAATCCCTCAATATAAATATCTCTCACTTATTTAAA | – | 1.2 | –
ACAGACGAAGGAGCCGCAAAGACGTTATTAAGGGATCAATAATCCCTCAATATAAATATCTCTCACTTATTTAAA | – | 0.743 | –
ACAGACGAAGGAGCCGCAAAGACGTTATTAAGGGATGAATAAACCCTCAATATAAATATCTCTCACTTATTTAAA | – | 0.312 | –
ACAGACGAAGGAGCCGCAAAGACGTTATTAAGGGATGAATAATCACTCAATATAAATATCTCTCACTTATTTAAA | 0.101 | 0.188 | –
ACAGACGAAGGAGCCGCAAAGACGTTATTAAGGGATGAATAATCCATCAATATAAATATCTCTCACTTATTTAAA | 0.156 | 0.312 | –
ACAGACGAAGGAGCCGCAAAGACGTTATTAAGGGATGAATAATCCCCCAATATAAATATCTCTCACTTATTTAAA | – | 0.226 | –
ACAGACGAAGGAGCCGCAAAGACGTTATTAAGGGATGAATAATCCCTCAAAATAAATATCTCTCACTTATTTAAA | 0.31 | – | –
ACAGACGAAGGAGCCGCAAAGACGTTATTAAGGGATGAATAATCCCTCAACATAAATATCTCTCACTTATTTAAA | – | 0.316 | –
ACAGACGAAGGAGCCGCAAAGACGTTATTAAGGGATGAATAATCCCTCAAGATAAATATCTCTCACTTATTTAAA | – | 0.205 | –
ACAGACGAAGGAGCCGCAAAGACGTTATTAAGGGATGAATAATCCCTCAATATAAATATCTCTCACTTATTTAAA | 0.978 | 1.02 | 1.12
ACAGACGAAGGAGCCGCAAAGACGTTATTAAGGGATGAATAATCCCTCAATATAGATATCTCTCACTTATTTAAA | – | 0.456 | –
ACAGACGAAGGAGCCGCAAAGACGTTATTAAGGGATGAATAATCCCTCCATATAAATATCTCTCACTTATTTAAA | 0.338 | – | –
ACAGACGAAGGAGCCGCAAAGACGTTATTAAGGGATGAATAATCCCTCGATATAAATATCTCTCACTTATTTAAA | – | 0.386 | –
ACAGACGAAGGAGCCGCAAAGACGTTATTAAGGGATGAATAATCCCTCTATATAAATATCTCTCACTTATTTAAA | – | 0.572 | –
ACAGACGAAGGAGCCGCAAAGACGTTATTAAGGGATGAATAATCCGTCAATATAAATATCTCTCACTTATTTAAA | – | 0.192 | –
ACAGACGAAGGAGCCGCAAAGACGTTATTAAGGGATGAATAATCCTTCAATATAAATATCTCTCACTTATTTAAA | 0.427 | – | –
ACAGACGAAGGAGCCGCAAAGACGTTATTAAGGGATGAATAATTCCTCAATATAAATATCTCTCACTTATTTAAA | – | 0.944 | –
ACAGACGAAGGAGCCGCAAAGACGTTATTAAGGGATGAATCATCCCTCAATATAAATATCTCTCACTTATTTAAA | 0.89 | 0.771 | –
ACAGACGAAGGAGCCGCAAAGACGTTATTAAGGGATGACTAATCCCTCAATATAAATATCTCTCACTTATTTAAA | 0.561 | – | –
